Columns and labels:
Experiment in all cases: FACS
GD-Pangolin RBD = biological target: GD-Pangolin RBD
RaTG13 RBD = biological target: RaTG13 RBD
A021 RBD = biological target: A021 RBD
CS24 RBD = biological target: CS24 RBD
Civet 007-2004 RBD = biological target: Civet 007-2004 RBD
Frankfurt 1 RBD = biological target: Frankfurt 1 RBD
LYRa11 RBD = biological target: LYRa11 RBD
Rs4231 RBD = biological target: Rs4231 RBD
SHC014 RBD = biological target: SHC014 RBD
WIV1 RBD = biological target: WIV1 RBD

Question: Which results are given for CB6/LY-CoV16?
Answer: Kd (GD-Pangolin RBD): 2.15 nM; Kd (RaTG13 RBD): 3.6 nM

Question: With LY-CoV555 as the substance, how does the Kd (GD-Pangolin RBD) read?
Answer: Its Kd is 1.3 nM.

Question: For REGN10933, which Kd (GD-Pangolin RBD) is on record?
Answer: The Kd was 0.64 nM.

Question: How did the Kd (GD-Pangolin RBD) turn out when REGN10987 was run?
Answer: The Kd was 1.44 nM.

Question: With S309 as the substance, how does the Kd (A021 RBD) read?
Answer: The Kd was 4.14 nM.

Question: What about the Kd (CS24 RBD) of the same substance?
Answer: The Kd was 2.52 nM.

Question: And the Kd (Civet 007-2004 RBD)?
Answer: Its Kd is 3.75 nM.

Question: And the Kd (Frankfurt 1 RBD)?
Answer: The Kd was 3.5 nM.

Question: And the Kd (GD-Pangolin RBD)?
Answer: The Kd was 4.53 nM.

Question: And the Kd (LYRa11 RBD)?
Answer: The Kd was 4.53 nM.

Question: What about the Kd (RaTG13 RBD) of the same substance?
Answer: Its Kd is 2.88 nM.

Question: What about the Kd (Rs4231 RBD) of the same substance?
Answer: Its Kd is 3.77 nM.

Question: What about the Kd (SHC014 RBD) of the same substance?
Answer: The Kd was 3.78 nM.

Question: What about the Kd (WIV1 RBD) of the same substance?
Answer: Its Kd is 3.89 nM.
